Measured values: the supplement of paper PMC10126150
± gives the standard deviation of the averaged measurements.

System: ATP
Test: switch fluorescence ratio, 500 uM ATP over buffer (Cy3 cluster intensity, sum of 5 cycles each) (fold (ratio)); higher = stronger signal-on switching upon ATP binding; sequences stand for … in TCGTCGGCAGCGTCAGATGTGTATAAGAGACAGTTTTTTTTTTTTTTTTTTTTTTTTT…TC
Conditions: aptamer strand: ATP DNA aptamer (quencher-CACCTGGGGGAGTATTGCGGAGGAAGG + anchor), 100 nM annealed; ATP concentration: 500 uM
Outline: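 Between each of five buffer/ATP cycles, the flow-cell was stripped with NaOH and re-annealed. Each cycle imaged Cy3-labelled switching-strand clusters, annealed to 100 nM quencher-labelled ATP aptamer on a modified Illumina MiSeq flow-cell, first in selection buffer and then after 15 min with 500 uM ATP at 22 °C. The fluorescence ratio is summed target-cycle over summed buffer-cycle Cy3 intensity per cluster, averaged per switch-domain sequence, with clusters outside 100-1000 RFU excluded.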
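Further: ATP exposure 15 min at 22 °C before imaging.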

| Sequence | switch fluorescence ratio |
| --- | --- |
| GCGATACTCG | 3.56 ± 0.16 |
| GGAGGAAGG | 1.02 ± 0.019 |
| TTCCTCAGAC | 1.6 ± 0.87 |
| TTAATCTTTC | 1.09 ± 0.05 |
| TTTGAGAATT | 1.01 ± 0.032 |
| GAGTCATGTG | 1.01 ± 0.037 |
| ATAATTTGCC | 1.01 ± 0.05 |
| AGAGGAGTTA | 0.985 ± 0.011 |
| CACCGTGTGG | 1.006 ± 0.0088 |
| GTTGTGCGTA | 0.994 ± 0.031 |
| AGGTGGGAGT | 1.02 ± 0.021 |
| AGTTGGCGGG | 1.018 ± 0.005 |
| TGGAAGCGGG | 1.04 ± 0.07 |
| AACAGTAGGG | 1.03 ± 0.012 |
| GGGGGGTACT | 0.994 ± 0.033 |
| TATTAGTGAA | 1.01 ± 0.013 |
| TAAGGGATGG | 0.973 ± 0.043 |
| TTGTGGAATG | 1.015 ± 0.0094 |
| AGTGGGACGC | 1 ± 0.044 |
| AAAAATGTGT | 0.971 ± 0.01 |
| CCAGGAAACG | 0.99 ± 0.072 |
| GAATATGTGG | 1 ± 0.013 |
| TAGTGATGTT | 0.983 ± 0.018 |
| TAGGTGGTCC | 0.9892 ± 0.0014 |
| AGCGGTTATT | 1.004 ± 0.0044 |

| Sequence | switch fluorescence ratio |
| --- | --- |
| TTAGATTGGG | 0.9736 ± 0.0075 |
| TTCTTTTTGG | 0.97 ± 0.042 |
| GCATTATTCG | 1.059 ± 0.0079 |
| CGGGGTGCTG | 1.03 ± 0.03 |
| AGTCAGAGTA | 0.9821 ± 0.004 |
| TAGTGGCTTA | 0.98 ± 0.042 |
| ACTTTAGATT | 1.04 ± 0.0053 |
| TAATCTGGCT | 0.993 ± 0.011 |
| GAGAATGGGT | 0.981 ± 0.022 |
| AAAATGGGCA | 1.02 ± 0.024 |
| GCTTTAGTTC | 1.03 ± 0.003 |
| CCAATGACGT | 0.979 ± 0.039 |
| GAACGAGAGG | 1.01 ± 0.012 |
| CACTTGCAGA | 0.999 ± 0.013 |
| GGCCTATTGG | 0.998 ± 0.023 |
| CAGAGCTTTT | 1.05 ± 0.058 |
| ACGCAGGGGG | 0.989 ± 0.034 |
| AGGCAAAGCA | 1.05 ± 0.073 |
| CACTTAGGGC | 1.06 ± 0.024 |
| TTATCGATGG | 0.987 ± 0.022 |
| TTGCGGCGCT | 1.01 ± 0.043 |
| GGCCAGGGGA | 1.04 ± 0.049 |
| GAGGGCACAT | 1.03 ± 0.05 |
| AAAGTTTCTC | 1 ± 0.032 |
| ATTCGATATA | 1.02 ± 0.014 |

| Sequence | switch fluorescence ratio |
| --- | --- |
| ATAAGTCTGT | 1.008 ± 0.0073 |
| ACGACATTTT | 1.084 ± 0.0048 |
| AAGGAGGGAT | 1 ± 0.036 |
| GCTTCAAGTC | 0.978 ± 0.018 |
| GATGATTCGG | 0.984 ± 0.037 |
| ATACGATTTG | 0.971 ± 0.038 |
| CGGGGGGGA | 1.0242 ± 0.00033 |
| TATGAGGTAA | 1.02 ± 0.028 |
| TTCAGGATAC | 1.19 ± 0.043 |
| TTGTATATGC | 1.16 ± 0.23 |
| GTGACAGGTC | 0.974 ± 0.038 |
| TGCATTGGAG | 1.01 ± 0.043 |
| GTGGGGATGG | 0.966 ± 0.024 |
| GACAGAGGGT | 1.04 ± 0.013 |
| TGTGTGAGT | 0.964 ± 0.013 |
| TAAATGGTGG | 0.977 ± 0.015 |
| TGGTCGTAGT | 0.994 ± 0.048 |
| CGGCGTCGGG | 1 ± 0.032 |
| GGCGGGGGGT | 1.01 ± 0.024 |
| TGGTTACCAT | 1.02 ± 0.057 |
| TTTTTTGCCG | 1.05 ± 0.14 |
| TTTATAGCGT | 0.974 ± 0.038 |
| CGGTTTTTAC | 1.08 ± 0.041 |
| TTTGACCGGA | 1.02 ± 0.072 |
| GGGGAAAAGA | 1 ± 0.025 |

| Sequence | switch fluorescence ratio |
| --- | --- |
| AAAAAAATCC | 1.01 ± 0.07 |
| GAATGGTAGT | 1.025 ± 0.0078 |
| AAGAGATATA | 1.008 ± 0.0037 |
| CGCATTAAGG | 1.11 ± 0.03 |
| ATGTGGAATG | 0.994 ± 0.037 |
| TATGCACGGA | 1.07 ± 0.09 |
| TTTCATTACT | 1.04 ± 0.065 |
| TAGGTCAATC | 1.026 ± 0.0029 |
| AGGTAGCTGT | 1.04 ± 0.053 |
| TATAAATGGC | 1.01 ± 0.029 |
| ATATTTGGCC | 0.974 ± 0.021 |
| TGTGCAATGT | 1.3 ± 0.029 |
| AGGGAAGTTA | 1.01 ± 0.014 |
| TGAGAGAAGG | 1.01 ± 0.014 |
| ATGGTTCCAC | 0.997 ± 0.024 |
| GGTTGTGCTT | 0.995 ± 0.0039 |
| TTAAGCCGGT | 1.04 ± 0.036 |
| GGAGGGCATC | 0.972 ± 0.0046 |
| AGGCATGCTG | 0.98 ± 0.062 |
| TGTATTTTT | 0.98586 ± 0.00097 |
| GGGTTGAAGT | 0.985 ± 0.008 |
| TAAAGGGGCG | 1.01 ± 0.031 |
| TTTACGGTGA | 1.02 ± 0.043 |
| CTTCTCGGCG | 1.08 ± 0.053 |
| CGATTGTCTG | 0.958 ± 0.02 |

| Sequence | switch fluorescence ratio |
| --- | --- |
| AGAGTTGTTT | 0.997 ± 0.015 |
| CTGAACTGTG | 0.989 ± 0.11 |
| AGATATTACG | 1.03 ± 0.037 |
| GGGAGTTTAG | 0.994 ± 0.016 |
| CTTGGGGGAA | 0.964 ± 0.013 |
| CACGACATTG | 1.02 ± 0.018 |
| CATTACCGGA | 1.012 ± 0.0098 |
| GTTATGTTTG | 1.01 ± 0.045 |
| TTGAAGTCCG | 1.03 ± 0.026 |
| GAAGGGAGGT | 0.987 ± 0.012 |
| GGGAAGTCCG | 0.974 ± 0.03 |
| GTGACAATTT | 0.998 ± 0.069 |
| TTTTGTGAGA | 1.026 ± 0.0075 |
| TTAGGGGGTC | 0.998 ± 0.036 |
| TTTGTCGTAT | 0.996 ± 0.014 |
| GACAAATCTG | 1.04 ± 0.043 |
| TGTTTGTGCG | 0.9633 ± 0.0057 |
| TCGGGGGGAC | 1.03 ± 0.036 |
| TTAAGGGTAT | 1 ± 0.011 |
| CCTCAGCGGA | 3.35 ± 0.42 |
| GAGTTTATTA | 0.994 ± 0.021 |
| GCTCAAAGTT | 0.99 ± 0.02 |
| AAAATCTAAT | 1.01 ± 0.054 |
| CCTGATTTGA | 0.989 ± 0.02 |
| TGTCCCTCTT | 1.02 ± 0.053 |

| Sequence | switch fluorescence ratio |
| --- | --- |
| TGGGGGTCAC | 0.9632 ± 0.0067 |
| CGTGCTGTA | 1.046 ± 0.0054 |
| TTCTTGGACA | 0.993 ± 0.016 |
| AGAGGATTTG | 1.02 ± 0.022 |
| CCTCGGTAGG | 1.02 ± 0.0051 |
| AGCTGACGCT | 1.02 ± 0.025 |
| GTAACTGCAG | 0.993 ± 0.051 |
| TAACGCTGTT | 1.01 ± 0.0068 |
| TAACTATAAG | 1 ± 0.018 |
| TTTGCTTAAT | 1.02 ± 0.044 |
| TAGGGTGGGC | 0.954 ± 0.028 |
| GCTACACAGG | 1.45 ± 0.016 |
| ATTGGACAGT | 1 ± 0.075 |
| AAGGTTCGAA | 1.023 ± 0.0033 |
| AAACTAGGGG | 1.06 ± 0.016 |
| GGGCCTTTTC | 1 ± 0.056 |
| TTACGGTAAC | 2.05 ± 1.1 |
| TTGATCTGTT | 0.972 ± 0.021 |
| ACAGTTGGGC | 0.9946 ± 0.004 |
| AGATTTCATA | 0.985 ± 0.02 |
| GATATTGGCG | 0.956 ± 0.013 |
| TAGTTCAGGA | 1.05 ± 0.036 |
| GCAGGTTGT | 1.009 ± 0.0021 |
| CTGAGTATGG | 1.01 ± 0.0034 |
| CTTATTAGGT | 0.985 ± 0.045 |

| Sequence | switch fluorescence ratio |
| --- | --- |
| CGGTAGGGGG | 1.02 ± 0.049 |
| TTAGGGAGCG | 0.996 ± 0.035 |
| GGGGGGAAAG | 0.98 ± 0.029 |
| TTTGTAGAAC | 1.02 ± 0.036 |
| GGTGCACCGA | 0.9884 ± 0.0063 |
| TACCAGTGCG | 1.19 ± 0.15 |
| GTGGGCGTTT | 1 ± 0.017 |
| CTCGGTTTAG | 1 ± 0.038 |
| ACTTTTACAT | 1.13 ± 0.025 |
| TCGTGTTTGT | 1.02 ± 0.011 |
| CTGGTTAATT | 0.973 ± 0.017 |
| CGGAAGTCTT | 0.992 ± 0.024 |
| GGGGAGGGCT | 0.964 ± 0.033 |
| CGGGGATACG | 1.01 ± 0.048 |
| GATGAAGAAA | 1.025 ± 0.0026 |
| CAAGTTGTTA | 0.964 ± 0.029 |
| AAGATCATAA | 0.994 ± 0.019 |
| GTTCTAGGAG | 1 ± 0.019 |
| TGTGCTGGGT | 1.02 ± 0.024 |
| CTGGTAAGGA | 1.017 ± 0.0031 |
| AATGTGGATA | 0.984 ± 0.028 |
| GGGGGATATT | 1.01 ± 0.037 |
| ATGGGCACGG | 0.99 ± 0.025 |
| TTGGATGTGA | 0.9622 ± 0.0052 |
| ATCTCACAGA | 0.989 ± 0.025 |

| Sequence | switch fluorescence ratio |
| --- | --- |
| GAATCGGGGT | 0.992 ± 0.045 |
| AGGGTGAGGC | 0.992 ± 0.06 |
| TTCAGCAATT | 1.57 ± 0.31 |
| GAGTTAGTAA | 0.999 ± 0.045 |
| AAGATAACGG | 1.07 ± 0.048 |
| ACAAGGGGGA | 1.02 ± 0.013 |
| GTTGGTGCGG | 0.999 ± 0.034 |
| GAACGGGAAT | 1.022 ± 0.00076 |
| CATTGAGGTT | 0.979 ± 0.02 |
| TTCGCTGTTC | 1.28 ± 0.027 |
| GTCGAGGAAT | 1.003 ± 0.0092 |
| AGAAGCCCCT | 0.992 ± 0.031 |
| GGCCGTCGGA | 1.06 ± 0.091 |
| GAAAAGGTCA | 1.04 ± 0.019 |
| CTTCAGGAAG | 0.9946 ± 0.0021 |
| GAGAGGCTGC | 0.975 ± 0.02 |
| GGTAGGGGGG | 1.01 ± 0.035 |
| GACATCCGGC | 1.05 ± 0.036 |
| TAAAATTTAA | 1.01 ± 0.05 |
| TTTTTCTGGA | 0.993 ± 0.021 |
| CCTTTGTTAT | 1.052 ± 0.0082 |
| GGGGTTAGTC | 1.02 ± 0.0085 |
| GTCAGTGAAT | 0.988 ± 0.057 |
| GCTTGGACTA | 0.967 ± 0.011 |
| AGCCAGGATT | 0.9722 ± 0.0083 |
